B1: Hu101-25 (antibody, V domains shown)
VH: EVQLQESGPGLVKPSETLSLTCAVSGYSISSGYYWNWIRQPPGKGLEWIGYINYGGSNGYNPSLKSRVTISRDTSKNQFSLKLSSVTAADTAVYYCARDYDAYYEALDDWGQGTTVTVSS
VL: EIVLSQSPATLSLSPGERATLSCRASSRVNYMHWYQQKPGQSPRPWISATSNLASGVPARFSGSGSGTSYTLTISSLEPEDFAVYYCQQWSSNPPTFGGGTKVEIK
notes: also called humanized anti-CD73 antibody Hu101-25
B2: Hu101-28 Fab (Fab, V domains shown)
VH: EVQLQESGPGLVKPSETLSLTCAVSGYSITSGYYWNWIRQPPGKKLEWMGYINYGGSNGYNPSLKSRITISRDTSKNQFSLKLSSVTAADTAVYYCARDYDAYYEALDDWGQGTTVTVSS
VL: EIVLSQSPATLSLSPGERATLSCRASSRVNYMHWYQQKPGQSPRPWISATSNLASGVPARFSGSGSGTSYTLTISSLEPEDFAVYYCQQWSSNPPTFGGGTKVEIK
notes: also called test Fab; CD73 Fab

Legend:
[1] = biological target: T1, human CD73 on the cell surface (human, UniProt P21589 27-549); test: flow cytometry on SK-OV-3 cells
T1 construct: also called cell surface CD73; CD73 on SK-OV-3 cells
T1 sequence: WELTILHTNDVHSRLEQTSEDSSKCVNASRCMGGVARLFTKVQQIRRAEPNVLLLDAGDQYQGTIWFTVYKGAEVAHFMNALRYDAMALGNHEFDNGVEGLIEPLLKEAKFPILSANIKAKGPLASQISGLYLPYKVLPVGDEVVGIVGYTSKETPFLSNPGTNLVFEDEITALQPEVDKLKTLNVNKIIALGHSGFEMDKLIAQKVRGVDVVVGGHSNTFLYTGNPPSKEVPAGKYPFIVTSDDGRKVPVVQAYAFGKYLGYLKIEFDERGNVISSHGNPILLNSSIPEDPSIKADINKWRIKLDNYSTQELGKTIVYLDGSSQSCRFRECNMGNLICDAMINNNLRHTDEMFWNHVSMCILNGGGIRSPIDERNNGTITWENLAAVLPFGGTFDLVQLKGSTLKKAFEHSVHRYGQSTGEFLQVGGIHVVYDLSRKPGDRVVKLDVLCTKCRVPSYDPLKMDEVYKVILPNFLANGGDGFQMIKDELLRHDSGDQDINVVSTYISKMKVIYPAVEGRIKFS
Experimental: Binding was measured using an FACSCanto (Becton-Dickinson), and the results are presented in FIG. 8 (see also the table below).

[2] = biological target: T2, recombinant human CD73 protein (human, UniProt P21589 27-547); test: SPR, Biacore T200, antibody captured by anti-human Fc IgG, antigen as analyte, 1:1 model, 25 C
T2 construct: Bought (Novoprotein); also called recombinant CD73 protein; soluble CD73
T2 sequence: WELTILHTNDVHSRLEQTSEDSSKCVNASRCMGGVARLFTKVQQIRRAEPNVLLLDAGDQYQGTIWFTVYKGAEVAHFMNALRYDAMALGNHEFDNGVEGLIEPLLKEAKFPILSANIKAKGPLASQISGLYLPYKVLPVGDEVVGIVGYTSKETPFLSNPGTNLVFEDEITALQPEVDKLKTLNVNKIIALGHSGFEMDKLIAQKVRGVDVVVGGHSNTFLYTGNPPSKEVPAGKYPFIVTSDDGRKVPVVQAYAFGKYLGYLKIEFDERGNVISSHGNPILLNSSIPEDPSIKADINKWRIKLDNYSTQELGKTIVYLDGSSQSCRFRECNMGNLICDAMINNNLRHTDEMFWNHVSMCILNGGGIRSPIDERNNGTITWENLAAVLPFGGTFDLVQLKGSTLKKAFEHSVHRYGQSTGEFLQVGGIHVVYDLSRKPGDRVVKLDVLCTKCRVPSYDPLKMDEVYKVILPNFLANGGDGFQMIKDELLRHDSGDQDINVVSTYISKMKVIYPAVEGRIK
Experimental: For the binding assay, the Biacore T200 system was used through human antibody capture approach. The anti-human Fc lgG were immobilized on CMS sensor chip according to the manufactory's instruction. The test antibody was injected and captured by the immobilized anti-human Fc lgG. And then serial concentrations of antigen was individually injected, and the binding profile was recorded for each concentration antigen analyte, respectively. The assay system was regenerated by injection of 10 mM Glycine-HCl pH 1.5 for 30 seconds. The running buffer was HBS-EP+(10 mM HEPES, pH 7.4, 150 mM NaCl, 3 mM EDTA and 0.05% P20). The assay temperature was 25° C., and the association and dissociation time were 180 and 600 seconds, respectively.

[3] = biological target: T2, recombinant human CD73 protein; test: cell-based or functional assay
[4] = biological target: T1, human CD73 on the cell surface; test: cell-based or functional assay
D399A [5] = biological target: T3, D399A; test: high-throughput flow cytometry on cells expressing the CD73 variant, in duplicate; mean (range)
T3 construct: also called CD73 variant D399A
T3 CD73 subunit: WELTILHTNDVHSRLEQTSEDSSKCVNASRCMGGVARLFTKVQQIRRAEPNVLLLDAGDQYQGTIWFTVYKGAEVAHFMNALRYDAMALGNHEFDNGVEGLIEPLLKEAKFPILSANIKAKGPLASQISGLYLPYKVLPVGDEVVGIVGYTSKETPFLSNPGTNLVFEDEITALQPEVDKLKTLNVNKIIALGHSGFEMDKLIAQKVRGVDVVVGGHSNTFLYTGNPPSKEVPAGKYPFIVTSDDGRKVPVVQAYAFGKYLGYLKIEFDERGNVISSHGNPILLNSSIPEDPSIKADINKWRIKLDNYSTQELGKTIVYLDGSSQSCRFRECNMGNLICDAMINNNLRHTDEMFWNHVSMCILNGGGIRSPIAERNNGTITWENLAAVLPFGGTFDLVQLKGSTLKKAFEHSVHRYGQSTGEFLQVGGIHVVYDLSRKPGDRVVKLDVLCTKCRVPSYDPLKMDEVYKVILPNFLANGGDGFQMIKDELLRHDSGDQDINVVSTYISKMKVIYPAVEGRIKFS
Experimental: (§1) To identify the epitope of Hu101-28, a library of clones of single amino acid-mutated CD73 variants was made. Binding of Hu101-28 Fab to each variant in the library was determined, in duplicate, by high-throughput flow cytometry. For each CD73 variant, the mean binding value was plotted as a function of CD73 expression (represented by control reactivity) on chart and critical residues were identified from the chart. Critical residues for CD73 Fab binding (outlined in red) were identified as those whose mutations were negative for test Fab binding, but positive for the control MAbs. The mean binding reactivities (and ranges) are listed for the critical residues identified in the screens, and are shown in FIG. 23.

Y345A [6] = biological target: T4, Y345A; test: as above
T4 construct: also called CD73 variant Y345A
T4 CD73 subunit: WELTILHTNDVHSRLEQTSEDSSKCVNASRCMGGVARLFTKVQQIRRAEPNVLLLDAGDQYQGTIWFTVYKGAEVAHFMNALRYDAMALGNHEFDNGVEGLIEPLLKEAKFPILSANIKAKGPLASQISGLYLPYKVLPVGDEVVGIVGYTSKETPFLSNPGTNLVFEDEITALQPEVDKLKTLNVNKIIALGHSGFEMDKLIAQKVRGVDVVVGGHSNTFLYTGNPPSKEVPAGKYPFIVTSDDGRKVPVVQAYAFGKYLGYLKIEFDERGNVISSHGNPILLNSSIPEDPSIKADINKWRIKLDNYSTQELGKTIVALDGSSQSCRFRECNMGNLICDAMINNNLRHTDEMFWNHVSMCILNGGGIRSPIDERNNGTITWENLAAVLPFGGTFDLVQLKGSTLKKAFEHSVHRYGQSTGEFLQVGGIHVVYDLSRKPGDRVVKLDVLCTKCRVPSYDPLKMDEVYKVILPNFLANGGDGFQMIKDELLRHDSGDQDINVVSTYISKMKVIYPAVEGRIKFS
Experimental: as §1

E400A [7] = biological target: T5, E400A; test: as above
T5 construct: also called CD73 variant E400A
T5 CD73 subunit: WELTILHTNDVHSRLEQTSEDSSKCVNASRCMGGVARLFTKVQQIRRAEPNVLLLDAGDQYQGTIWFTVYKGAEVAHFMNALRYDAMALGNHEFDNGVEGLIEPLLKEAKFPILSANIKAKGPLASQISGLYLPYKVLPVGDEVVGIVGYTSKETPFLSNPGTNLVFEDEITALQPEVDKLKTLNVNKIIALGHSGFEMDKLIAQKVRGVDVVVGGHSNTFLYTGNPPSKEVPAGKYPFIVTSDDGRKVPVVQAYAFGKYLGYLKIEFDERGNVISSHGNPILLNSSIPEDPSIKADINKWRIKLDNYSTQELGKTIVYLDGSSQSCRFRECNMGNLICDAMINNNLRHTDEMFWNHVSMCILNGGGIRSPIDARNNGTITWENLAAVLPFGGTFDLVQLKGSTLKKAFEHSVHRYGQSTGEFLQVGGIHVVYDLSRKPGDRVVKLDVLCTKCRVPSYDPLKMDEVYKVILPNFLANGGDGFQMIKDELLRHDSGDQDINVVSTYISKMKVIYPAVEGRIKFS
Experimental: as §1

R401A [8] = biological target: T6, R401A; test: as above
T6 construct: also called CD73 variant R401A
T6 CD73 subunit: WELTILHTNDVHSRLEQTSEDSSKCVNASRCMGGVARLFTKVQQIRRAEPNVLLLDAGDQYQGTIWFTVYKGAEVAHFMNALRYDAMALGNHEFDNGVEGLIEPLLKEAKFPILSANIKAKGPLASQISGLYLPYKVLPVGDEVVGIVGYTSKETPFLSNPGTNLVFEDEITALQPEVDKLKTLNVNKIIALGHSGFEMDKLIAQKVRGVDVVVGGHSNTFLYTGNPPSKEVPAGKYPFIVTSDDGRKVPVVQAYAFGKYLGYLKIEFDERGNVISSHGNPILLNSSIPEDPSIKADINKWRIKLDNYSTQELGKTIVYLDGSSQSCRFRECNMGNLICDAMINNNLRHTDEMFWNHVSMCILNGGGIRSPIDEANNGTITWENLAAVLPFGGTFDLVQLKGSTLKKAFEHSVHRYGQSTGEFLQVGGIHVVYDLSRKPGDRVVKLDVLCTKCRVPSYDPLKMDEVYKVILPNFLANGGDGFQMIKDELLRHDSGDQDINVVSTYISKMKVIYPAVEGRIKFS
Experimental: as §1

D399A [9] = biological target: T3, D399A; test: high-throughput flow cytometry on cells expressing the CD73 variant
Experimental: as §1

Y345A [10] = biological target: T4, Y345A; test: as above
Experimental: as §1

E400A [11] = biological target: T5, E400A; test: as above
Experimental: as §1

R401A [12] = biological target: T6, R401A; test: as above
Experimental: as §1

| Binder | EC50 [1] | Kd [2] | koff [2] | kon [2] | IC50 (nM), inhibition of recombinant CD73 enzymatic activity [3] | IC50 (nM), inhibition of CD73 enzymatic activity on SK-OV-3 cells [4] | Binding Reactivity (% WT) (D399A [5]) | Binding Reactivity (% WT) (Y345A [6]) | Binding Reactivity (% WT) (E400A [7]) | Binding Reactivity (% WT) (R401A [8]) | binding result (D399A [9]) | binding result (Y345A [10]) | binding result (E400A [11]) | binding result (R401A [12]) |
| --- | --- | --- | --- | --- | --- | --- | --- | --- | --- | --- | --- | --- | --- | --- |
| B1 | 2.38 nM | 0.747 nM | 5.51e-05 s⁻¹ | 73700 M⁻¹ s⁻¹ | 4.72 nM | 2.98 nM | – | – | – | – | – | – | – | – |
| B2 | – | – | – | – | – | – | 1.8 % WT | 2.7 % WT | 3.6 % WT | 1.1 % WT | no binding | no binding | no binding | no binding |
